In paper PMC12992115 (Nature Cell Biology, 2026):
“And” between values parts separate entries of the source, which are not always exact repeats. Equal entries are not always repeated.

Key:
[1] = biological target: BicD2(25–400) with SpyCatcher003 at the C terminus (mouse) (UniProt Q921C5); assay: mass photometry
[2] = biological target: truncated kinesin-1 rigor mutant (KIF5B(1–490)) with SpyTag003 at the C terminus (UniProt P33176); assay: mass photometry
[3] = biological target: BicD2–rigor kinesin conjugate (BicD2(25–400)–SpyCatcher003 covalently linked to KIF5B(1–490) rigor mutant–SpyTag003) (mouse | not stated) (UniProt Q921C5); assay: three-colour single-molecule TIRF co-localization
Sequence of BicD2–rigor kinesin conjugate (BicD2(25–400)–SpyCatcher003 covalently linked to KIF5B(1–490) rigor mutant–SpyTag003) (mouse | not stated) (Q921C5 25-400, change not shown): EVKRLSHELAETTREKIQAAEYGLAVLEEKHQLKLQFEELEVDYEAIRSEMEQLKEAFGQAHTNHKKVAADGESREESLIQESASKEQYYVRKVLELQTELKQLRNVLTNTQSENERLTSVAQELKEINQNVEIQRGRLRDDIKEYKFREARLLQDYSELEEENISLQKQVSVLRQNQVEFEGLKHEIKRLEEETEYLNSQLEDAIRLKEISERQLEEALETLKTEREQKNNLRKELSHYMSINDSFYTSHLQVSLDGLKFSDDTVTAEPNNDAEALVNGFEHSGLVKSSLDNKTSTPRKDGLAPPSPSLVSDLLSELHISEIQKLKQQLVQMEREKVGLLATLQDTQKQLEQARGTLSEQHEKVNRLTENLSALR

[4] = biological target: Biotinylated BicD2 (amino acids 25–400) (mouse) (UniProt Q921C5); assay: three-colour single-molecule TIRF co-localization
Sequence of Biotinylated BicD2 (amino acids 25–400) (mouse) (Q921C5 25-400): as the sequence (Q921C5 25-400, change not shown) above

[5] = biological target: BicD2–superfolder green fluorescent protein (sfGFP), amino acids 25–400 (UniProt Q921C5); assay: pull-down + other: mass photometry
Sequence of BicD2–superfolder green fluorescent protein (sfGFP), amino acids 25–400 (Q921C5 25-400): as the sequence (Q921C5 25-400, change not shown) above

mass photometry = biological target: the molecule itself; assay: mass photometry

**Q.** Which stoichiometry N [1] does the source give for “BicD2(25–400) with SpyCatcher003 at the C terminus (from UniProt Q921C5 25-400) (domain or fragment)” here?
**A.** The stoichiometry N was 2.

**Q.** What about the stoichiometry N (BicD2:rigor kinesin (2:2)) [2] of the same molecule?
**A.** Its stoichiometry N (BicD2:rigor kinesin (2:2)) is 1.

**Q.** For “recombinant full-length human cytoplasmic dynein-1 complex co-expressed with its five accessory chains (from UniProt Q14204;Q13409;O43237;P63172;P63167;Q9NP97)”, which frequency of three-colour dynein co-localization [3] is on record?
**A.** The frequency of three-colour dynein co-localization was 0.028.

**Q.** And the frequency of three-colour dynein co-localization [4]?
**A.** The frequency of three-colour dynein co-localization was 0.018.

**Q.** For “cytoplasmic dynein from rat-brain lysate (complex)”, which stoichiometry N (dynein per DDB complex) [5] is on record?
**A.** The stoichiometry N (dynein per DDB complex) was 1 and 2.

B1: truncated kinesin-1 rigor mutant (KIF5B(1–490)) with SpyTag003 at the C terminus (domain or fragment)
chain: MADLAESNIKVMCRFRPLNESEVNRGDKYIAKFQGEDTVVIACKPYAFDRVFQSSTSQEQVYNDAAKKIVKDVLEGYNGTIFAYGQTSSGKNHTMEGKLHDPEGMGIIPRIVQDIFNYIYSMDENLEFHIKVSYFEIYLDKIRDLLDVSKTNLSVHEDKNRVPYVKGATERFVSSPDEVMDTIDEGKSNRHVAVTNMNEHSSRSHSIFLINVKQENTQTEQKLSGKLYLVDLAGSEKVSKTGAEGAVLDEAKNINKSLSALGNVISALAEGSTYVPYRDSKMTRILQDSLGGNARTTIVICCSPSSYNESETKSTLLFGQRAKTIKNTVSVNVELTAEQWKKKYEKEKEKNKILRNTIQWLENELNRWRNGETVPIDEQFDKEKANLEAFTVDKDITLTNDKPATAIGVIGNFTDAERRKAEEEIAKLYKQLDDKDEEINQQSQLVEKLKTQMLDQEELLASTRRDQDNMQAELNRLQAENDASKEEVKE
modifications: cyanine 5 label (Fig. 5d) or CF488 label (Fig. 5h)
**Q.** Which “stoichiometry N” value (mass photometry) does the source give for B1 here?
**A.** The value was 2.
